Results published in article PMC10572825 (2023).

Molecular target: Tenascin-C (Mus musculus, UniProt Q80YX1, FITC-labelled tenascin-C)
Assay: isothermal fluorescence titration

B1: CCL26 (protein)
chain: TRGSDISKTCCFQYSHKPLPWTWVRSYEFTSNSCSQRAVIFTTKRGKKVCTHPRKKWVQKYISLLKTPKQL
Kd: 270 nM
